pIC50, pKd: −log10 of the molar value. A value given as a limit tells only on which side of the number the result lay.

By pIC50 is commonly meant the IC50 on a negative log10 scale, so that one unit is a factor of ten. Lower therefore signals a high IC50. By pKd is commonly meant the Kd on a negative log10 scale, so that one unit is a factor of ten.

The target in assay [1] is HLA-A*03:01. As to the kind of experiment: IEDB peptide-MHC binding, purified MHC/competitive/fluorescence; ≥ and ≤ were set here for values at or beyond the usual limits of such assays.
In assay [2] the target is HLA-A*24:02. Described as above.
Assay [3] concerns the target HLA-A*11:01. Described as above.
Assay [4] deals with HLA-B*15:01. Briefly: IEDB peptide-MHC binding, purified MHC/competitive/fluorescence; filed as Kd, often an IC50 or EC50 that approximates it; ≥ and ≤ were set here for values at or beyond the usual limits of such assays.
Assay [5] has as its target HLA-A*01:01. Described as above.
Assay [6] addresses HLA-B*15:01. As to the kind of experiment: IEDB peptide-MHC binding, purified MHC/competitive/fluorescence; ≥ and ≤ were set here for values at or beyond the usual limits of such assays.
Assay [7] addresses HLA-A*02:01. Described as above.
Assay [8] deals with HLA-A*29:02. As to the kind of experiment: IEDB peptide-MHC binding, purified MHC/competitive/fluorescence; filed as Kd, often an IC50 or EC50 that approximates it; ≥ and ≤ were set here for values at or beyond the usual limits of such assays.
Assay [9] concerns the target HLA-A*03:01. The assay is described as above.
Assay [10] concerns the target HLA-A*69:01. The assay is described as above. The note with it: source organism: Pseudomonas aeruginosa PACS2.
Assay [11] concerns the target HLA-B*39:01. The description is as above.
For assay [12], the target named is HLA-B*27:03. The assay is described as above.
The target of assay [13] is HLA-B*57:01. Described as above.
For assay [14], the target named is HLA-B*46:01. The description is as above.
For assay [15], the target named is HLA-A*02:12. The assay is described as above.
Assay [16] deals with HLA-B*18:01. The assay is described as above.
Assay [17] has as its target HLA-B*51:01. The description is as above.
For assay [18], the target named is HLA-A*02:01. The assay is described as above. The note with it: source organism: Pseudomonas aeruginosa PACS2.
The target of assay [19] is HLA-A*26:01. The description is as above.
Assay [20] deals with HLA-B*58:01. Briefly: IEDB peptide-MHC binding, purified MHC/competitive/radioactivity; filed as Kd, often an IC50 or EC50 that approximates it; ≥ and ≤ were set here for values at or beyond the usual limits of such assays.
Assay [21] addresses HLA-B*57:01. The description is as above.
For assay [22], the target named is HLA-A*68:02. As to the kind of experiment: IEDB peptide-MHC binding, purified MHC/competitive/fluorescence; filed as Kd, often an IC50 or EC50 that approximates it; ≥ and ≤ were set here for values at or beyond the usual limits of such assays.
The target of assay [23] is HLA-A*02:11. The assay is described as above. The note with it: source organism: Coxiella burnetii 'MSU Goat Q177'.
Assay [24] has as its target HLA-A*32:01. Briefly: IEDB peptide-MHC binding, purified MHC/competitive/radioactivity; filed as Kd, often an IC50 or EC50 that approximates it; ≥ and ≤ were set here for values at or beyond the usual limits of such assays.
The target in assay [25] is HLA-B*53:01. The description is as above.
In assay [26] the target is HLA-B*51:01. The assay is described as above. The note with it: source organism: Dengue virus 4 Philippines/H241/1956.
The target of assay [27] is HLA-B*08:01. The assay is described as above. The note with it: source organism: Dengue virus 4 Philippines/H241/1956.
Assay [28] has as its target HLA-B*35:01. Described as above. To be noted: source organism: Dengue virus 3 Singapore/8120/1995.
The target in assay [29] is HLA-A*24:02. The assay is described as above. The note with it: source organism: Dengue virus 3 Singapore/8120/1995.
The target of assay [30] is HLA-A*23:01. The assay is described as above. To be noted: source organism: Dengue virus 3 Singapore/8120/1995.
For assay [31], the target named is HLA-A*02:06. The assay is described as above. To be noted: source organism: Dengue virus 3 Singapore/8120/1995.
For assay [32], the target named is HLA-A*26:01. The description is as above. The note with it: source organism: Dengue virus 3 Singapore/8120/1995.
Where [33] appears, read: source organism: Sudan ebolavirus.
Where [34] appears, read: source organism: Escherichia coli 536.
The mark [35] stands for this setting: source organism: Pseudomonas aeruginosa PACS2.
[36] abbreviates: source organism: Dengue virus 1 Brazil/97-11/1997.
The mark [37] stands for this setting: source organism: Zaire ebolavirus.
[38] abbreviates: source organism: Salmonella enterica subsp. enterica serovar Typhi.
[39] abbreviates: source organism: Coxiella burnetii 'MSU Goat Q177'.
Setting [40] is: source organism: Vaccinia virus WR.
The mark [41] stands for this setting: source organism: Dengue virus 1 Singapore/S275/1990.
The mark [42] stands for this setting: source organism: Escherichia coli str. K-12 substr. MG1655.
Where [43] appears, read: source organism: Dengue virus 4 Philippines/H241/1956.
Setting [44] is: source organism: Vaccinia virus.
Where [45] appears, read: source organism: Dengue virus 3 Singapore/8120/1995.

For the sequence RTYTILNRK, the pIC50 was 5.98 in [1] (setting [33]), 4.37 in assay [2] (setting [33]) and 6.79 in assay [3] (setting [33]).
Take ISRNTVKRY: the results for the negative-log Kd (pKd) in [4] (setting [34]) and in assay [5] (setting [34]) were 6.55 and at most 4.70, respectively.
With VVTNSTLEV, the values for the negative-log IC50 (pIC50) in assay [6] (setting [33]) and in [7] (setting [33]) were at most 3.94 and 5.10, respectively.
As to KLIDVSKCI, the negative logarithm of the Kd (pKd) in assay [8] (setting [35]), in [9] (setting [35]), in [10], in assay [11] (setting [35]), in assay [12] (setting [35]) and in assay [13] (setting [35]) was at most 4.70 each time. The pKd in assay [14] (setting [35]) was at most 4.70; in assay [15] (setting [35]), 7.96; in assay [16] (setting [35]), at most 4.70; in [17] (setting [35]), at most 4.70; in assay [18] it was 8.07; in assay [19] (setting [35]) it was at most 4.70.
Regarding SATRLENIMW, the figures for the negative-log Kd (pKd) in assay [20] (setting [36]) and in assay [21] (setting [36]) were 7.16 and 7.93, respectively.
For PVYRDHSEK, the negative logarithm of the IC50 (pIC50) was 5.12 in assay [1] (setting [37]) and 5.15 in assay [3] (setting [37]).
EAIRQIHAQ: the negative-log Kd (pKd) in [22] (source organism: Escherichia coli HS) is 6.09.
For the sequence HILRSQGPF, the negative logarithm of the IC50 (pIC50) in assay [2] (setting [37]) was 5.24; in assay [6] (setting [37]), 4.89; in assay [7] (setting [37]), at most 3.29.
GTTEVNGLY: the pKd in assay [9] (setting [38]) was 5.67; in assay [5] (setting [38]) it was 7.82.
Consider ATQVEQHHR, for which the values for the negative-log IC50 (pIC50) in [1] (setting [37]) and in assay [3] (setting [37]) were at most 4.04 and 5.28, respectively.
Turning to YYLIKYLHV, the negative logarithm of the Kd (pKd) in assay [9] (setting [39]), in [11] (setting [39]), in assay [12] (setting [39]), in assay [13] (setting [39]), in [14] (setting [39]) and in [4] (setting [39]) was at most 4.70 each time. The negative logarithm of the Kd (pKd) was 7.15 in [23]; 5.93 in assay [15] (setting [39]); at most 4.70 in assay [16] (setting [39]); at most 4.70 in assay [17] (setting [39]); at most 4.70 in assay [19] (setting [39]).
Sequence WMSNGTWNY showed a pKd in assay [5] (source organism: Human immunodeficiency virus 1) of 8.05.
In assay [3] (setting [40]), LNTIQFMHE had a negative-log IC50 (pIC50) of at most 3.83.
Regarding LSAIALGVA, the pIC50 in [6] (setting [37]) is at most 3.85; in [7] (setting [37]), 4.59.
For LMNFHQKKN, the pIC50 in assay [1] (setting [37]) was at most 3.48; in [6] (setting [37]), at most 3.58; in assay [7] (setting [37]), at most 3.91.
Turning to MSNGEHVPF, the pIC50 in assay [2] (setting [40]) was 5.26; in assay [6] (setting [40]), 4.31.
As for TTFSLHYAW, the negative-log Kd (pKd) is 8.80 in [20] (setting [41]), 8.85 in assay [21] (setting [41]) and 8.88 in assay [24] (setting [41]).
For the sequence FYMASTWGA, the pKd in assay [22] (source organism: Entamoeba dispar SAW760) was 7.08.
Regarding GYYSTTIRY, the pIC50 was at most 3.52 in assay [1] (setting [37]), 6.08 in assay [2] (setting [37]) and 5.34 in assay [6] (setting [37]).
Regarding ETKKNLTRK, the pIC50 in assay [1] (setting [37]) was 4.30; in assay [3] (setting [37]), 4.85.
As to ELACAVPFY, the pKd is 6.65 in assay [4] (setting [42]) and at most 4.70 in assay [5] (setting [42]).
In turn, WMNHHAITY had a pKd in assay [8] (source organism: Orientia tsutsugamushi str. Boryong) of at least 10.00.
GASTSQETW: the results for the negative logarithm of the Kd (pKd) in [20] (setting [36]), in assay [21] (setting [36]) and in assay [25] (setting [36]) were 8.53, 7.99 and 6.21, respectively.
On to RSTKGGQQK, for which the negative logarithm of the IC50 (pIC50) in [1] (setting [37]) was 5.25; in [3] (setting [37]), 5.74.
For the sequence MAMTTVLSI, the pKd was 7.72 in [20] (setting [43]), 8.63 in assay [25] (setting [43]), 7.44 in assay [26] and 7.79 in assay [27].
GMIAGWHGY: the pKd in [8] (source organism: Influenza B virus (B/Victoria/2/1987)) is 8.80.
For RMNSNQVCI, the negative-log IC50 (pIC50) in assay [1] (setting [44]) is at most 3.93; in assay [2] (setting [44]) it was 7.09; in assay [6] (setting [44]), 4.74; in assay [7] (setting [44]), 5.46.
For the sequence RAKGSRAIW, the pKd was 7.57 in [20] (setting [43]) and 6.76 in assay [21] (setting [43]).
Take MIAGVLFTF: the pKd in [28] was 8.33; in assay [20] (setting [45]), 7.69; in [29] it was 7.30; in assay [30], 7.59; in assay [31], 7.65; in [24] (setting [45]), 8.73. Besides, in assay [32], the pKd was 5.91.
With VGKTSQVPK, the values for the pIC50 in [1] (source organism: Variola virus) and in assay [3] (source organism: Variola virus) were 4.87 and 5.81, respectively.

The values above are taken from the Immune Epitope Database (IEDB).
